Measurements taken from PMC4015550, “Immunopurification of adenomatous polyposis coli (APC) proteins” (BMC Research Notes, 2013).

Biological target: the molecule itself
Experiment: not stated; data not shown; APC fragment of residues 1-61 said to form a dimer; no method or conditions told

B1: APC-NT antigen (APC residues 1–61 with an N-terminal FLAG-tag) (domain or fragment, human, UniProt P25054 1-61, looked up)
chain: MAAASYDQLLKQVEALKMENSNLRQELEDNSNHLTKLETEASNMKEVLKQLQGSIEDEAMA
notes: adenomatous polyposis coli (APC), human, amino acids 1-61, the N-terminal oligomerisation (coiled-coil) region; also called N-terminal fragment of APC (residues 1–61); source: E. coli (pET30a+), purified (anti-FLAG M2 Sepharose, MonoQ anion exchange, reversed-phase HPLC)
In the case of B1, the “stoichiometry N” value is reported as 2.
